The text below walks through data of paper PMC11633383, “Role of VapBC4 toxin-antitoxin system of Sulfolobus acidocaldarius in heat stress adaptation” (mBio, 2024).

The experiment addresses T1, VapC4 toxin (Saci_1813) with a C-terminal histidine tag (Sulfolobus acidocaldarius DSM639, UniProt Q4J7W2 1-140, FITC (Alexa-488) fluorescent probe, site not stated, F/P ratio approximately 0.5 (in the FRET assay only)).
T1 construct: also called Saci VapC4; pAG153; not shown: His tag, C-terminal, kept
T1 sequence (looked up): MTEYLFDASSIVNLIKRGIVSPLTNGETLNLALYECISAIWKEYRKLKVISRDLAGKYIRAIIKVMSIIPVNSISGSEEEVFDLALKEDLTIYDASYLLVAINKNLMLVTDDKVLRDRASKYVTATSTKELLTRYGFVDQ
As to the kind of experiment: FRET or BRET; FITC-labelled VapC4 (100 nM, donor) titrated with TRITC-labelled VapB4 (25-2,000 nM, acceptor); excitation 495 nm, FITC emission at 520 nm, 60°C; fit to a hyperbolic binding equation. The note with it: both partners purified.

B1: VapB4 antitoxin (Saci_1812) with a C-terminal histidine tag (natural protein, Sulfolobus acidocaldarius DSM639, UniProt Q4J7W4 1-77, looked up)
chain: MDSSGYVTISAKVPRELKELMDKYGIKPGPVIRKALEEEVRRRAIQELEKELKDLKEKSQISDEDVARLIREDRESR
modifications: TRITC (Alexa-532) fluorescent probe, site not stated, F/P ratio approximately 0.5 (in the FRET assay only)
notes: Unlabelled in the RNase neutralisation assay, TRITC-labelled in FRET; also called pAG154; source: E. coli BL21(DE3)-RIL, purified (Ni2+-NTA, dialysis)
Regarding B1, the Kd came out at 40 ± 2.2 nM.
